The text below walks through data of patent US20190284287A1 (TUSK THERAPEUTICS, published 2019).

Assay [1] has as its target T1, human CD25 antigen, R&D Systems cat no. 223-2A/CF (~10% dimer) (human, UniProt P01589 22-240, limits assumed).
T1 construct: also called R&D Systems (~10% dimer); huCD25 (IL2R alpha)
T1 sequence: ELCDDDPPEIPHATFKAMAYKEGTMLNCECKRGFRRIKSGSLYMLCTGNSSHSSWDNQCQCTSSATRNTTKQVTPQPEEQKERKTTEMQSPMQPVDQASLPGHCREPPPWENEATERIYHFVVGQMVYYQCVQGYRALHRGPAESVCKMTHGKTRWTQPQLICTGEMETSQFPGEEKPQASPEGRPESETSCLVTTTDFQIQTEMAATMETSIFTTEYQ
In words: SPR, Biacore T200; antibody captured by anti-human Fab, CD25 as analyte, Two State Reaction fit; column 'Binding strength' (affinity and/or avidity).
Experimental: (§1) Binding of CD25 antibodies to human CD25 antigen was investigated by surface plasmon resonance using a BIACORE T200 instrument (GE Healthcare).
(§2) The flow cell was set to 25° C. and the sample compartment to 12° C. The CD25 antibody was captured by injecting a 3 μg/ml solution for 60 sec at a flow rate of 10 μl/min. Association of CD25 antigen was measured by injection of human CD25 solutions for 180 sec at a flow rate of 30 μl/min starting with a concentration of 1000 nM down to 1 nM in 1:10 dilution steps. The dissociation phase was triggered by switching from sample solution injection to running buffer and monitored for up to 600 seconds. The surface was regenerated by washing with two consecutive 1-minute injections of 10mM glycine pH 2.1 (provided by the kit) at a flow rate of 10 μl/min. Bulk refractive index differences were corrected by subtracting the response obtained from an anti-human Fab reference surface; blank injections are also subtracted (=double referencing).
(§3) For calculation of KD and kinetic parameters Biacore provided fitting models were used to obtain optimal curve fitting results. The 1:1 Langmuir fit was used for P1AA5872 and the Two State Kinetic fitting for CD25 from Sino Biologicals and R&D Systems.

Assay [2] addresses T2, recombinant human CD25 extracellular protein sequence (rhCD25) (human, UniProt P01589 22-240).
T2 construct: also called human CD25 antigen
T2 sequence: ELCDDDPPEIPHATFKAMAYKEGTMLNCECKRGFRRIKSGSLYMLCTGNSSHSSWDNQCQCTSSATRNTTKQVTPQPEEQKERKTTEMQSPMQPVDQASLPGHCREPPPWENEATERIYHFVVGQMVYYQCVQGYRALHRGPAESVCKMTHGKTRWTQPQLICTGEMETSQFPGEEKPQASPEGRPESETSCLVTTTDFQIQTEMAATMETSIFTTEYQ
In words: method not given; lower end of the stated range.

Assay [3] addresses T3, human CD25 expressed on cells (human, UniProt P01589 22-272).
T3 construct: Endogenous CD25 on human cell lines and primary cells
T3 sequence: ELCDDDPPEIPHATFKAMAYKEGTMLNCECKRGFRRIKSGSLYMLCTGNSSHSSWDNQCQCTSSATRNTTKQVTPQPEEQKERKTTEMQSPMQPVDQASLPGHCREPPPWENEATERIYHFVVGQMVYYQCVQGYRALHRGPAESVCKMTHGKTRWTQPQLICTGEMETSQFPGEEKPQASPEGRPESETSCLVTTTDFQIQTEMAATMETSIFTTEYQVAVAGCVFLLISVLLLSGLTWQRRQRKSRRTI
In words: flow cytometry on human in vitro differentiated Treg cells, Alexa Fluor 647 anti-human IgG secondary.
Experimental: Binding to CD25 expressing in vitro differentiated Tregs was examined by staining test articles (anti-CD25 primary antibodies) with 30 μg/ml antibodies followed by semi-log dilution series (7-point) for 30 minutes on ice. […] All samples were stained in duplicates. Live cells were gated using FSC vs SSC parameters by flow cytometry during sample acquisition. Mean fluorescence intensity (MFI) of stained cells were plotted on an XY chart, graphing MFI against the log of the concentration, and the data fit to a non-linear regression curve from which the EC50 is calculated.

The target of assay [4] is T3, human CD25 expressed on cells. In words: cell-based or functional assay.
Assay [5] deals with T4, recombinant human CD25 his tagged (human, UniProt P01589 22-240).
T4 construct: also called rhCD25-his tag; not shown: His tag
T4 sequence: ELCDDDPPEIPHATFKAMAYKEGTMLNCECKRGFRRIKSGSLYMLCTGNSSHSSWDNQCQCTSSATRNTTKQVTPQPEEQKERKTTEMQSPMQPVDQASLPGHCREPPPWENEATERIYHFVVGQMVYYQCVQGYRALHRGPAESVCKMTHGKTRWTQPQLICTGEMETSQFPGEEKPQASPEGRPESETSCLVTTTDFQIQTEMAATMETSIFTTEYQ
In words: BLI, ForteBio Octet Red96; IgG on AHC sensors, rhCD25-His in solution, 1:1 fit.

Assay [6] concerns the target T2, recombinant human CD25 extracellular …. In words: method not given; upper end of the stated range.
Assay [7] addresses T3, human CD25 expressed on cells. In words: flow cytometry on Karpas 299 cells, Alexa Fluor 647 anti-human IgG Fc secondary [B); D00021 Figure 21 cont. C), D), E].
Experimental: Binding to CD25 expressing Karpas299 cells was examined by staining test articles (anti-CD25 primary antibodies) with 20 μg/ml antibodies followed by semi-log dilution series (7-point) for 30 minutes on ice. […] All samples were stained in duplicates. Live cells were gated using FSC vs SSC parameters by flow cytometry during sample acquisition. Mean fluorescence intensity (MFI) of stained cells were plotted on an XY chart, graphing MFI against the log of the concentration, and the data fit to a non-linear regression curve from which the EC50 is calculated.
In assay [8] the target is T5, inhouse produced monomeric human CD25 antigen (P1AA5872) (human, UniProt P01589 22-240, limits assumed).
T5 construct: also called Inhouse (0% dimer)
T5 sequence: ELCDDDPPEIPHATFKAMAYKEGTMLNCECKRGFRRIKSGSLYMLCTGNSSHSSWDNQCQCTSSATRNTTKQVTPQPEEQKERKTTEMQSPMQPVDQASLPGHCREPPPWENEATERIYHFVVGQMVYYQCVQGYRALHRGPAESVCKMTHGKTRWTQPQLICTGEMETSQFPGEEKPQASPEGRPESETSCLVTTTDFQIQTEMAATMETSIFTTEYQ
In words: SPR, Biacore T200; antibody captured by anti-human Fab, monomeric CD25 as analyte, 1:1 Langmuir fit; column 'Binding strength'.
Experimental: as §1, §2, §3

Assay [9] deals with T3, human CD25 expressed on cells. In words: flow cytometry on CD3/CD28 bead activated human Pan T cells, gated on CD8+ T cells.
Experimental: (§4) Binding to CD25 expressing activated human and Cynomolgus monkey PMBC was examined by staining test articles (anti-CD25 primary antibodies) with 20 μg/ml antibodies followed by semi-log dilution series (7-point) for 30 minutes on ice. This was followed by staining with a secondary antibody (rabbit anti-human Fcg F(ab′)2—(Jackson ImmunoResearch)) concentration of 5 μg/ml for 30 minutes on ice. All samples were stained in triplicates. To minimize cross-linking induced cell death mediated by binding of the secondary antibody, cell lines were examined in staining cohorts of 4 test articles at a time. Live lymphocytes were gated using FSC vs SSC parameters by flow cytometry during sample acquisition. Mean fluorescence intensity (MFI) of gated CD4⁺ and CD8⁺ T cell subsets were plotted on an XY chart, graphing MFI against the log of the concentration, and the data fit to a non-linear regression curve from which the EC50 was calculated.
In assay [10] the target is T6, human CD25 antigen, Sino Biologicals cat no. 10165-H08H (~20% dimer) (human, UniProt P01589 22-213).
T6 construct: Bought antigen; also called Sino biological (~20% dimer)
T6 sequence: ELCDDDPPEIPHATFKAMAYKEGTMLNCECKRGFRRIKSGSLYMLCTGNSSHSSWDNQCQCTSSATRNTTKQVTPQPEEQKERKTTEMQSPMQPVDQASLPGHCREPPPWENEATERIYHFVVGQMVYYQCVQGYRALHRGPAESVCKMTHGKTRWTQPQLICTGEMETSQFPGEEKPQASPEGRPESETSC
In words: SPR, Biacore T200; antibody captured by anti-human Fab, CD25 as analyte, Two State Reaction fit; column 'Binding strength' (affinity and/or avidity); Sino Biological CD25 (~20% dimer), Two State Reaction fit; affinity and/or avidity.
Text: as §1, §3

The target of assay [11] is T3, human CD25 expressed on cells. In words: flow cytometry on CD3/CD28 bead activated human Pan T cells, gated on CD4+ T cells.
Experimental: as §4
Assay [12] addresses T4, recombinant human CD25 his tagged. In words: SPR, Biacore 2000; antibody captured by anti-human antibody, rhCD25-His as analyte, two state fit.
Experimental: (§5) Anti-human antibody was initially immobilised across all flow cells in analysis buffer (pH 7.4, 10 mM HEPES, 150 mM NaCl, 3 mM EDTA, 0.05% Tween 20) to an RU of between 12,000-14,000 over 10 minutes. […] Dissociation was performed in analysis buffer over 10 minutes. Regeneration steps between sample concentrations were performed in 10 mM Glycin pH1.7 for 10 minutes. A flow rate of 25 μl/min was maintained throughout the process. Kinetics data were fit using a global two state reaction conformational change analysis software provided by Biacore with reference subtraction.
Assay [13] has the same target. In words: SPR, Biacore 2000: IgG1 captured on an anti-human antibody CM-5 chip, rhCD25-his tag as analyte.
Assay [14] has the same target. Described as above. This is another data set of the same source.
For assay [15] the target is unchanged. Described as above. This is another data set of the same source.
Experimental: as §5
Assay [16] has the same target. The description is as above. This is another data set of the same source.
Experimental: as §5
Assay [17] has the same target. The description is as above. This is another data set of the same source.
Experimental: as §5

B1: aCD25-a-686 (antibody, V domains shown)
VH: QVQLVQSGAEVKKPGSSVKVSCKASGGTFSSLAISWVRQAPGQGLEWMGGIIPIFGTANYAQKFQGRVTITADESTSTAYMELSSLRSEDTAVYYCARGGSVSGTLVDFDIWGQGTMVTVSS
VL: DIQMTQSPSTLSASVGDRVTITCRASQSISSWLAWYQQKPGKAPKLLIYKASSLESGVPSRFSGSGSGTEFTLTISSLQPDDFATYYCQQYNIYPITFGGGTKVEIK
notes: not shown: human IgG1 heavy chain constant region (P01857); human kappa light chain constant region (P01834)
In the case of B1, the Kd is 5.8 nM in assay [1]; at least 0.1 nM in assay [2]; 2.33 nM in [5]; at most 10 nM in assay [6]; 244 nM in assay [8]; 2.5 nM in [10]. Besides, the Kd in assay [12] worked out at 3.2 nM. Moreover, the “EC50 (read off the curve)” value in assay [3] is around 1 µg/mL; in [7], around 0.5 µg/mL; in [9], around 0.5 µg/mL; in assay [11], around 0.4 µg/mL. Moreover, the “ADCC of iTregs by IL-2 activated NK cells: EC50” value in assay [4] was determined as 0.21 uG/mL.

B2: afucosylated aCD25-a-686 (antibody, human IgG1, V domains shown)
VH: QVQLVQSGAEVKKPGSSVKVSCKASGGTFSSLAISWVRQAPGQGLEWMGGIIPIFGTANYAQKFQGRVTITADESTSTAYMELSSLRSEDTAVYYCARGGSVSGTLVDFDIWGQGTMVTVSS
VL: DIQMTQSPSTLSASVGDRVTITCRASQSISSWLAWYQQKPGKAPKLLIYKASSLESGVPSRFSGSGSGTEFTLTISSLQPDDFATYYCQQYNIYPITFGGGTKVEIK
modifications: Fc glycan afucosylated (>99% of a-fucosylation by LC/MS)
With B2, the “ADCC of iTregs by IL-2 activated NK cells: EC50” value in assay [4] is 0.01 uG/mL.

B3: aCD25-a-686-m1 (antibody, IgG1, V domains shown)
VH: QVQLVQSGAEVKKPGSSVKVSCKASGGTFSSLAISWVRQAPGQGLEWMGAIIPVFGTASYAQKFQGRVTITADESTSTAYMELSSLRSEDTAVYYCARGGSVSGTLVDFDIWGQGTMVTVSS
VL: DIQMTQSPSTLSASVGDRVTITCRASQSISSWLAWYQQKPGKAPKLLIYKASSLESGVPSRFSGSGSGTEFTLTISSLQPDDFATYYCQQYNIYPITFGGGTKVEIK
notes: also called aCD25-a-686-ml; aCD25-a-686ml
With B3, the Kd in assay [13] worked out at 0.97 nM.

B4: aCD25-a-686-m2 (antibody, IgG1, V domains shown)
VH: QVQLVQSGAEVKKPGSSVKVSCKASGGTFSSLAITWVRQAPGQGLEWMGGIIPIFGDASYAQKFQGRVTITADESTSTAYMELSSLRSEDTAVYYCARGGSVSGTLVDFDIWGQGTMVTVSS
VL: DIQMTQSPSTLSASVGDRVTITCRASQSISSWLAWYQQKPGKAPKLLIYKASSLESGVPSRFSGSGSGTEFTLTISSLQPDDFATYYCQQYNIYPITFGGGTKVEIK
As for B4, the Kd in assay [14] is 1.9 nM.

B5: aCD25-a-686-m3 (antibody, IgG1, V domains shown)
VH: QVQLVQSGAEVKKPGSSVKVSCKASGGTFSSLAISWVRQAPGQGLEWMGGIIPIFGDANYAQKLQGRVTMTTDTSTSTAYMELRSLRSDDTAVYYCARGGSVSGTLVDFDIWGQGTMVTVSS
VL: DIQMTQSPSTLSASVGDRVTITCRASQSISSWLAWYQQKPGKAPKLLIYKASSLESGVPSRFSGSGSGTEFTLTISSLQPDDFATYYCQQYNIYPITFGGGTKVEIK
B5: the Kd in assay [15] came to 0.34 nM.

B6: aCD25-a-686-m5 (antibody, IgG1, V domains shown)
VH: QVQLVQSGAEVKKPGSSVKVSCKASGGTFSSLAIFWVRQAPGQGLEWMGGIIPVFGQANYAQKFQGRVTITVDESTSTAYMELSSLRSEDTAVYYCARGGSVSGTLVDFDIWGQGTMVTVSS
VL: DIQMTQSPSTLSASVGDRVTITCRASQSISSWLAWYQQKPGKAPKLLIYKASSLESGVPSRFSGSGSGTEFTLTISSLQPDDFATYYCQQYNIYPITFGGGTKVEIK
Turning to B6, the Kd in [16] turned out to be 0.66 nM.

B7: aCD25-a-686-m4 (antibody, IgG1, V domains shown)
VH: QVQLVQSGAEVKKPGSSVKVSCKASGGTFSALAISWVRQAPGQGLEWMGGIIPLFGRANYAQKFQGRVTITADESTSTAYMELSSLRSEDTAVYYCARGGSVSGTLVDFDIWGQGTMVTVSS
VL: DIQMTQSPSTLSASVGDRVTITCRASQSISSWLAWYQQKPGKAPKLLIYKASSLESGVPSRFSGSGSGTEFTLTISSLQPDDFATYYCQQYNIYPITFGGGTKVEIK
For the molecule B7, in assay [17], the Kd turned out to be 0.76 nM.
